Data on three molecules can be found in publication PMC6052341, “Phosphorylation of FtsZ and FtsA by a DNA Damage-Responsive Ser/Thr Protein Kinase Affects Their Functional Interactions in Deinococcus radiodurans” (mSphere, 2018).

T1: P-FtsA, phosphorylated form of FtsA of Deinococcus radiodurans, purified recombinant (Deinococcus radiodurans, UniProt Q9RWN6 1-517, phosphorylated by co-expressed RqkA (checked with anti-phospho-Ser/Thr antibodies); sites reported for FtsA: threonine 272, serine 370 and serine 386)
T1 construct: FtsA, cell division protein of Deinococcus radiodurans R1; same plasmid as m3, co-expressed with the kinase RqkA; also called phosphorylated FtsA
T1 sequence (looked up): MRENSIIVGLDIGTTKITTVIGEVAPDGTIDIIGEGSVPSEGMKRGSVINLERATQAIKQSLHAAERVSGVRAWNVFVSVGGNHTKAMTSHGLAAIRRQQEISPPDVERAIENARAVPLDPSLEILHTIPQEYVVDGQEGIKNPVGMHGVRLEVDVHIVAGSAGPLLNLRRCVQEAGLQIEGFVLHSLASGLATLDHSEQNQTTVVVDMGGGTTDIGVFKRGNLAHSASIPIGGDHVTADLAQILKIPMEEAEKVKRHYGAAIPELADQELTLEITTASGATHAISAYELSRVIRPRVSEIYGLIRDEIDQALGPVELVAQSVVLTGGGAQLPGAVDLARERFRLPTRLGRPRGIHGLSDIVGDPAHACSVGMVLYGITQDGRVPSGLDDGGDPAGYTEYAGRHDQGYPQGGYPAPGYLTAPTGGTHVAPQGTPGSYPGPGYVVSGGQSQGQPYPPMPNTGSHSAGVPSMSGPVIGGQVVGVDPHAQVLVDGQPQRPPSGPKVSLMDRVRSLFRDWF

B1: FtsZ of Deinococcus radiodurans, purified recombinant (natural protein, UniProt Q9RWN5 1-371, looked up)
chain: MQAARIRVIGLGGAGNNAVNRMIESGLEGVEFIAGNTDAQVLAKSHAEVRIQLGDRLTRGLGAGADPKVGEEAAVEDRDRIKEYLDDTDMLFITAGMGGGTGTGSAPVVAEIAREMGILTVAIVTRPFKFEGPKRMRVAEEGMSKLADRVDGMIVVNNEKLLTAVDKKVSFREAFLIADRVLYYGVKGISDVINVEGMINLDFADVRNLLANSGTVLMGIGAGRGDKMAEEAAMSAIHSPLLERGIEGARRILVNVTGGYDLSMTDANEIVEKIREATGFDDPDILFGITPDEAAGDEVRVTVIATGFGDNTYAAPLGGVVSSGRGGYDQGGYGSGLVRPVRGGQGGLGGGSSYDPKDYDIPAFLRNVGGQ
notes: FtsZ, cell division protein of Deinococcus radiodurans R1; also called FZ; unphosphorylated FtsZ; source: E. coli BL21(DE3) pLysS from pFTSZ, purified (nickel-chelating Sepharose, Ni-NTA agarose)
B2: P-FtsZ, phosphorylated form of FtsZ of Deinococcus radiodurans, purified recombinant (natural protein, UniProt Q9RWN5 1-371, looked up)
chain: B1 chain
modifications: phosphorylated by co-expressed RqkA (checked with anti-phospho-Ser/Thr antibodies); sites mapped on FtsZ phosphorylated by RqkA in vitro: serine 235 and serine 335
notes: FtsZ, cell division protein of Deinococcus radiodurans R1; same plasmid as m1, co-expressed with the kinase RqkA; also called PFZ; phosphorylated FtsZ
B3: FtsA of Deinococcus radiodurans, purified recombinant (natural protein, UniProt Q9RWN6 1-517, looked up)
chain: T1 sequence (looked up)

Test [1] addresses B3. In words: SPR; FtsA or P-FtsA (25 µM) immobilised on a bare gold sensor chip by EDC-NHS chemistry at 20°C, about 200 response units; running buffer 20 mM Tris pH 7.6; FtsZ or P-FtsZ (6 to 30 µM) with 1 mM GTP and 1 mM MgCl2 in the mobile phase; AutoLab Esprit. To be noted: both partners purified.
The target in test [2] is T1, P-FtsA, phosphorylated form of FtsA of …. Described as above. The settings on record: both partners purified.
The target in test [3] is B3. In words: SPR; reverse manner: FtsZ or P-FtsZ (20 µM) immobilised on a bare gold sensor chip; FtsA or P-FtsA (4 to 20 µM) in the mobile phase. To be noted: both partners purified.
In test [4] the target is T1, P-FtsA, phosphorylated form of FtsA of …. Described as above. The settings on record: both partners purified.
Test [5] deals with B1. In words: cell-based or functional assay.

With B1, the Kd stood at 6.83 µM in test [1], 8.35 µM in test [2], 7.93 µM in test [3] and 5.17 µM in test [4].

As for B2, the Kd in test [1] was 10.3 µM; in test [2] it was 15 µM; in test [3], 65.2 µM; in test [4], 58.3 µM.

As to B3, in test [5], the “stimulation of the GTPase activity of 5 µM FtsZ by 5 µM FtsA (malachite green assay; TLC of [32P]GTP to [32P]GDP)” value was ~1.5 fold.
